Literature values in PMC4136965 (Journal of nuclear medicine : official publication, Society …, 2009).
Read-outs that look alike come from different tables or passages of the source. Non-standard residues stand in square brackets, D forms with d. No end group written: not given here.

Test system: B16F10 xenografted melanoma
Conditions: mouse, in vivo

Substance: ^18F-FB-Ac-Nle-Asp-His-D-Phe-Arg-Trp-Gly-Lys-NH2 ([dF]RWGK-NH2; not fully specified (N-terminus); also: 18F-FB label, position not given here) [^18F-FB-NAPamide]
- Tumor uptake (1 h): 1.19 ± 0.11 %ID/g
- Tumor uptake (4 h): 0.25 ± 0.05 %ID/g
